Test results published in paper PMC7366829 (Acta biomaterialia, 2020).

Target: the molecule itself
Assay: SEC-MALS

B1: BOR1 from Arabidopsis thaliana (AtBOR1), purified in DDM, GFP-8His tag cleaved (natural protein)
chain: not shown
stoichiometry N: 2
